In the DeepSol protein solubility set:

Assay: soluble on expression in E. coli; label from the status in PepcDB or PDB records

Row | Sequence | soluble on expression in E. coli
1 | MGHHHHHHSHMPPGGHIESGASFSPSAGSDGDKGLKPREEGEAPEAGPCLASQLAPVQWVAPPRLLLRLIFIDLPALLIAPTAESSAEEDEEPHDEGQSSEDQAPIANGLIVIVERVHVPLGAAATVHRQPSHFPR | not soluble
2 | MDQKKDPSNNLTERRVSKVQRPNKKKVRNQVESLSRNLERNKEGQLLQTVSKGHLEADSGHSLGREKENGELGIRSIFYDKDWNPRGTAPSHYRNIPYNPATFKRRTEVQARLGNLENIKIPK | not soluble
3 | MNKFLFAAALIVSGLLVGCNQLTQYTITEQEINQSLAKHNNFSKDIGLPGVADAHIVLTNLTSQIGREEPNKVTLTGDANLDMNSLFGSQKATMKLKLKALPVFDKEKGAIFLKEMEVVDATVQPEKMQTVMQTLLPYLNQALRNYFNQQPAYVLREDGSQGEAMAKKLAKGIEVKPGEIVIPFTD | not soluble
4 | MGSDKIHHHHHHMDYRKLPHGNEKVSTIGIGSGSLKETTSKEIEDIVTYSMEEGVNLIDTVMYDTTAAEPINNALKGHRDDMLMQIHLGVWYPKGTYSRTRVPRNVKKGFEQELKKYSTNYADIGLISYVDRVKDFEKIMSNGIFDYAKKLKQDGTIRYLGISSHSEEICKLFIETGEIDVIMFSINAAYDFKPSWGKLNLKNERMELYQECEKQGVALTVMKAYGGGQLLNEKTSPFNHAMTVPQCIQYALDRPGVVSCISGVSSKADLDEALKYYSTSEKDRDYSFIASLPHRDIMGTCIYCNHCQPCPSGIDIGIVNKYLDLAKAGDELAKDHYLKLSKNANDCTNCGVCEKNCPFHVDIRGRMLKAKNYFDKTNSVKK | not soluble
5 | MAHHHHHHMWWTAARRRLYYPNQIFLSKDNRRINNSWLPRRLLLVRHGESEANVNREVYSNTPDWKIPLTALGREQAYDCGKRLRNIIQGEKLYIYYSPYARTRQTVSEIRRSFDESQIQGEREDERLREQEMGNYQPLQDMDATWAARNAFGRLYYRFPFGESGADVGDRVSGFFDSLLRESIGLTVPNMNECVVQGAREGLGALDLGPWSTGVDNVPGSSCACSVSTSQGGPVASSTGSESAPPSWTPSFHQATTSSAGLRRTIRRTSPHRPLPLSDFGEAETRGVPPLNDHCASAGEEQNVLIIAHGLLIRLFIGRWFRVPMEVFETMCNPPNCAIIVLERDDRLGRLVMTDMSKSLFGSDPLLQMMRFDGREDTHWYREKFLGIVDPTKAAEEAVVEDDDENHYSMSNAHNSGVGAPAPPPRQRKPSTSTATRASPSTSASASGTSASSAESADVSASTAEHAALAARDRATQPKCPPPCMDCTPNRDYMTFSRRR | not soluble
6 | GSPGISGGGGGILDSMVEKEEPKEEEKLGKLQYSLDYDFQNNQLLVGIIQAAELPALDMGGTSDPYVKVFLLPDKKKKFETKVHRKTLNPVFNEQFTFKVPYSELGGKTLVMAVYDFDRFSKHDIIGEFKVPMNTVDFGHVTEEWRDLQSAE | soluble
7 | MSLKGTPGNVPAARTGIEITPAHRAFFHALPKIELHCHLLGAVRHDTFVALAERSGAPIERAEIDAFYARGEKPVGVLHVLRALDRYLLTQPDDLRRIAYEYLEDAAAYNVRHAEFFWNPTGTVHVSGIAYADAQAAIVTGIRDAARDFGIGARLIPSIDREQDPDEAVAIVEWMKANRADEVAGLGIDYRENDRPPELFWKAYRNARAAGFRTTAHAGEFGMPWRNVETAVDLLQVDRVDHGYTIVDNPELCARYAERGIVFTVVPTNSYYLRTLPPEQWAERHPMRKMPGLGLKIHPNTDDPTLHKVNPSEAWELMFSHFGFTVAELKQFMLNGIDGAWVDDTTKAAWRAAWAPEFDVLAATLAAGEGHHHHHH | soluble
8 | MEHLSQDEVIRLASTPCSAPALKRAFLFSCLTALRKSDIKKLTWEEIQPYGSDGVMYVTTRMQKTKDIVHNPISEEALELIGYSPDKRGKVFPDFKDSMTQAPLKNWLKDAGITKHISYHCSRHSFACLQLDAGTSIAVVQRYLGHKNVATTEVYAKISDAQKRASVGLEHHHHHH | not soluble
9 | MSLINLVEKEWQEHQKIVQASEILKGQIAKVGELLCECLKKGGKILICGNGGSAADAQHFAAELSGRYKKERKALAGIALTTDTSALSAIGNDYGFEFVFSRQVEALGNEKDVLIGISTSGKSPNVLEALKKAKELNMLCLGLSGKGGGMMNKLCDHNLVVPSDDTARIQEMHILIIHTLCQIIDESF | soluble
10 | MYVCLCHAITDTQIKNAVSQGDTSLADVKKRLGVADQCGKCARMAVQIIQNQLEIEPKYYEVA | soluble
11 | KHSCIAVIDAGSTGSRLHIYSYDTDDTNTPIHIEEIWNKKIKPGFASIQPNSVTIDAYLTMLLADAPIHNIPVYFYATAGMRLLPQSQQKKYYDELEYWFRQQSQWQLVEAKTITGNDEALFDWLAVNYKLDTLKSVQNKSVGVMDMGGASVQIVFPMPKNAEISKHNQVELNIYGQNINLYVHSFLGLGQTEMSHQFLNSPSCFANDYPLPDGESGQGNAPSCKEEVTSLMNSVHKVNQQIQPLLALNPVNEWYSIGGISNLASSQLFHFENSELTNQSLLQQGDNQICHQQWDILNGQYPDDEYLYQYCLLSSYYYALMVDGYGINPNQTIHYIPPEQNLDWTIGVVLHRA | soluble
12 | MRKEEVLALLRSRWPELCALGVAELYLFGSLARGEARPRSDVDLLVAFATPPGFEGYWRVKEFLESLLGRPVDLVMKGALKPWAVSEVLGEAVRVA | soluble
13 | MSLSMCGNKISVIRPLPAEVVKKIAAGEIIARPSSAIKELIENSVDAGATEIRVNLSSNPLDFCEIIDNGSGVSEKDLMIICQRYTTSKTTDSIEGVRSLGFRGEALSSLSQNSHVTISSRTENENMRTVMTYSECEPVLDEIRYEEGPRGFHLKYENLFYNYEIRSKSLLSNINSEFISCLHLVQKYSIHFPNINFVFNRTSSPILDLNNLNNVSSQQSSGSGSGDSCSSQPNCNFSTSSRFDDYDSSDDELDITLTQKLEYDYHYFTKMYDDPKSDDLRTEYIRNVEKVSFDCLRVIKENIKRIYGLKVSNVLQEVVFNNFDDLFFNCKGLISHPNQPCKLDMFILFVNNRLIDLPNLRRMIFNTYNDITNNRYRRFVYLSIFVPYDQIDSNIHPTKKRIMIENQAEIVEQITKFFHDKITELIKSATTEGHHHHHH | soluble
14 | MGSDKIHHHHHHMNDYKALRTFLLAAEKRNFAQVARELDMTPAAVTRAIAALEAELGVQLFVRTTRQVSLTTDGAIFAAQLQPAVKTIEDARREVMNAHKADEGRLRISAPTWFGKAVLPPILSAFKERYPKMSFEISLSDGLVNIVDDDYDLAIRISSQPSDKFTIWRKIRVVPRILVAAPGSRFVDMQHPNELTPDDCLAYSGDSRRENWVLSDGGSSITISAGRAFSANNGEVLADIAADGAGVAMLPGFHIFEHLRTGRLVHVFKGWAPPDLWLTLYYPPYQALPPRIASFSKFFEEQVPAHMVMLD | not soluble
15 | METKCELNNTKKVANAFGLNEEDTNLLINAVDLDIKNNMQEISSELQQSEQSKQKQLGTTLQNLAKQNRIIK | not soluble
16 | MSRSRKPDWLKMRPPSGERFTDIKQTLRDRNLNTVCEEANCPNLGECWSGRDGPGTATFMLMGDRCSRGCNFCDVETGGMDPLDPDEPQQVADAVAEIGLDYVVLTSVDRDDLPDQGASHFAETIRAIKERDPSILVECLIPDFQGEPDLVRKIIDADPDVIAHNIETVDRLQWPVRDRRAGYEQSLSVLRQVNRESDCYSKTSLMLGVGEYAHEVYQTLSDLRQAGVDVVTFGQYLQPSRSHLEVSEYVHPDAFDTWQQVAEAEFDFLYCASGPMVRSSYRAGELFVESVLREGRSADEARAEVRAND | not soluble
17 | MSLSALIINEYREQGGTAISFPEDISRARQKLFRFLDNRFDSDQYRENVRELTPAIMAVLPVEFRTRLAPQNDTMSLIASAMKECSEAKQAVLLNAPEHQKMKEVSEGIASLFRLMPEQVGPLMTMVTSMLGVIEGHHHHHH | not soluble
18 | MGSDKIHHHHHHMNFQQCRYVEAIANTGSFSEAAKKLYVTQPNLSSSIKELENDLGVQLFIRSNTGARLTDDGYDFLKYAKRILGEADLLKKRYQDNYKKSFTISSHHYDFLAIPLLEIAEKFKKDFQHFHLIETTTKKILESVLNFESDLGILYLNDDNRHILERYFKQHDLAFTPLGDFPTRIFLRKDHPLAQQKVIEKVQLKDYKQVRFRQEISGLNFDEDTLDIPENQSVFYSNDRGTIMNILCGSDAYASGLGIVNSFIKDQIVLIPLKDSKMHTLGFVSNKRKQETDITQQFITAVKNSLRTYERGTQL | not soluble
